Legend:
[1] = target: TIM-1 antigen, cell membrane-bound (on ACHN, CAKI-2, CAKI-1 renal cancer cells and polarized/activated human CD4+ T cells) (human) (UniProt Q96D42); assay: FACS on activated T cells, Day 4, +MMPI
[2] = target: TIM-1 antigen, cell membrane-bound (on ACHN, CAKI-2, CAKI-1 renal cancer cells and polarized/activated human CD4+ T cells) (human) (UniProt Q96D42); assay: FACS on activated T cells, Day 1, +MMPI
[3] = target: TIM-1 antigen, cell membrane-bound (on ACHN, CAKI-2, CAKI-1 renal cancer cells and polarized/activated human CD4+ T cells) (human) (UniProt Q96D42); assay: FACS on activated T cells, Day 5, +MMPI
[4] = target: TIM-1 antigen, cell membrane-bound (on ACHN, CAKI-2, CAKI-1 renal cancer cells and polarized/activated human CD4+ T cells) (human) (UniProt Q96D42); assay: FACS on activated T cells, Day 2, -MMPI
[5] = target: TIM-1 antigen, cell membrane-bound (on ACHN, CAKI-2, CAKI-1 renal cancer cells and polarized/activated human CD4+ T cells) (human) (UniProt Q96D42); assay: FACS on activated T cells, Day 4, -MMPI
[6] = target: TIM-1 antigen, cell membrane-bound (on ACHN, CAKI-2, CAKI-1 renal cancer cells and polarized/activated human CD4+ T cells) (human) (UniProt Q96D42); assay: FACS on activated T cells, Day 1, -MMPI
[7] = target: TIM-1 antigen, cell membrane-bound (on ACHN, CAKI-2, CAKI-1 renal cancer cells and polarized/activated human CD4+ T cells) (human) (UniProt Q96D42); assay: FACS on activated T cells, Day 5, -MMPI
[8] = target: TIM-1 antigen, cell membrane-bound (on ACHN, CAKI-2, CAKI-1 renal cancer cells and polarized/activated human CD4+ T cells) (human) (UniProt Q96D42); assay: FACS on activated T cells, Day 2, +MMPI
[9] = target: TIM-1 antigen, cell membrane-bound (on ACHN, CAKI-2, CAKI-1 renal cancer cells and polarized/activated human CD4+ T cells) (human) (UniProt Q96D42); assay: FACS on activated T cells, Day 0, +MMPI
[10] = target: TIM-1 antigen, cell membrane-bound (on ACHN, CAKI-2, CAKI-1 renal cancer cells and polarized/activated human CD4+ T cells) (human) (UniProt Q96D42); assay: FACS on activated T cells, Day 0, -MMPI

Sequence of TIM-1 antigen, cell membrane-bound (on ACHN, CAKI-2, CAKI-1 renal cancer cells and polarized/activated human CD4+ T cells) (human) (Q96D42 21-364): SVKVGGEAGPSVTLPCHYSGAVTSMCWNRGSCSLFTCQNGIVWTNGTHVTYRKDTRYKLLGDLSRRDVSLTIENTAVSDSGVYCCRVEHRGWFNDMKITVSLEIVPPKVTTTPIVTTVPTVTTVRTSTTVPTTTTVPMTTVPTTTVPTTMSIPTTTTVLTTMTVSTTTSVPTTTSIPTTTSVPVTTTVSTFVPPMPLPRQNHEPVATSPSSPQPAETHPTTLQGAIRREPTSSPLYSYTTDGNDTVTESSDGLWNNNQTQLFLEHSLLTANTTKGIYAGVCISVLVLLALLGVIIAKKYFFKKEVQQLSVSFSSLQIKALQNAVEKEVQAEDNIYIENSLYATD

Percent of activated T cells that express TIM-1 (percent stained) [1]: 2% | Percent of activated T cells that express TIM-1 (percent stained) [2]: 2% | Percent of activated T cells that express TIM-1 (percent stained) [3]: 2% | Percent of activated T cells that express TIM-1 (percent stained) [4]: 3% | Percent of activated T cells that express TIM-1 (percent stained) [5]: 1% | Percent of activated T cells that express TIM-1 (percent stained) [6]: 3% | Percent of activated T cells that express TIM-1 (percent stained) [7]: 1% | Percent of activated T cells that express TIM-1 (percent stained) [8]: 6% | Percent of activated T cells that express TIM-1 (percent stained) [9]: 1% | Percent of activated T cells that express TIM-1 (percent stained) [10]: 1%
Substance: isotype matched control mAb PK16.3 (antibody)

Reference: US20050084449A1
